What was measured:
Experiment in all cases: BLI
CCL4L1 = target: T1, CCL4L1 (Homo sapiens)
T1 chain: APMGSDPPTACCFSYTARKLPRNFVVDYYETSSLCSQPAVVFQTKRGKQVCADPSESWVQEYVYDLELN

CCL7 = CCL7 (human, UniProt P80098 24-99)
CCL21 = target: T2, CCL21 (human, UniProt O00585 24-134)
T2 chain: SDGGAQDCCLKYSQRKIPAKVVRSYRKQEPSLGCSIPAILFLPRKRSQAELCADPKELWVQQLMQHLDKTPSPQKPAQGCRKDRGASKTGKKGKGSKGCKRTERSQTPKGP

CCL1 = target: T3, CCL1 (human, UniProt P22362 24-96)
T3 chain: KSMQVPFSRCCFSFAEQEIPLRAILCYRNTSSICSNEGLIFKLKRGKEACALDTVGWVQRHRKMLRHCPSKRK

CCL23 = target: T4, CCL23 (human, UniProt P55773 22-120)
T4 chain: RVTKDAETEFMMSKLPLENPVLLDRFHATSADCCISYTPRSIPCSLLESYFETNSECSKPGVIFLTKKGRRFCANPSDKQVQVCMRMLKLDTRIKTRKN

CCL8 = target: T5, CCL8 (Homo sapiens)
T5 chain: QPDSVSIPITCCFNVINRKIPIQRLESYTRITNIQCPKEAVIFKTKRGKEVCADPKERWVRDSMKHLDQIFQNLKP

CCL4 = target: T6, CCL4 (Homo sapiens)
T6 chain: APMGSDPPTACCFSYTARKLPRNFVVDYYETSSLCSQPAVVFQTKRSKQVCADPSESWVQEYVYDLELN

CCL16 = target: T7, CCL16 (Homo sapiens)
T7 chain: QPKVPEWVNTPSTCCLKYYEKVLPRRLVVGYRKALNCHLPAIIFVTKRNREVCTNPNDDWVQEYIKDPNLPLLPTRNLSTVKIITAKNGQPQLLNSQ

CCL19 = target: T8, CCL19 (Homo sapiens)
T8 chain: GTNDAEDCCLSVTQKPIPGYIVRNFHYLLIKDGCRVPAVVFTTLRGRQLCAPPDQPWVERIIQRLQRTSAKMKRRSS

CCL18 = target: T9, CCL18 (Homo sapiens)
T9 chain: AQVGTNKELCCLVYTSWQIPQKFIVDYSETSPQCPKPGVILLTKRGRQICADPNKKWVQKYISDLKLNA

CCL5 = target: T10, CCL5 (human, UniProt P13501 24-91)
T10 chain: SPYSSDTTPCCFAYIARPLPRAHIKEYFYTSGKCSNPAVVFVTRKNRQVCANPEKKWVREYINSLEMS

CCL17 = target: T11, CCL17 (Homo sapiens)
T11 chain: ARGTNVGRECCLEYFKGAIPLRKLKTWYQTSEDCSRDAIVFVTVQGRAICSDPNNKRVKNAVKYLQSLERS

CCL22 = target: T12, CCL22 (human, UniProt O00626 25-93)
T12 chain: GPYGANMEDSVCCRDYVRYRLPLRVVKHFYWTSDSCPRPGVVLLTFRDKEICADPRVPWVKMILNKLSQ

CCL13 = CCL13 (human, UniProt Q99616 24-98)
Chain of CCL13 (Q99616 24-98): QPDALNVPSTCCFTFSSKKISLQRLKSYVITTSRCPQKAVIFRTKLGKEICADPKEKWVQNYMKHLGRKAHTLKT

CCL27 = target: T13, CCL27 (Homo sapiens)
T13 chain: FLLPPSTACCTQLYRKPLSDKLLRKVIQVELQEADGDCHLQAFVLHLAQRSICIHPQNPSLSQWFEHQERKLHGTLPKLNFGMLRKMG

CCL24 = target: T14, CCL24 (Homo sapiens)
T14 chain: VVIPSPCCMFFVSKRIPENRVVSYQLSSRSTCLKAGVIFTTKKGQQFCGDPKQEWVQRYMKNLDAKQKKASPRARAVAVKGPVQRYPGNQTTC

CCL3L1 = target: T15, CCL3L1 (human, UniProt P16619 24-93)
T15 chain: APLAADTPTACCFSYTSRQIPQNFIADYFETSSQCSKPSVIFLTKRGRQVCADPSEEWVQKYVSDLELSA

CCL14 = target: T16, CCL14 (Homo sapiens)
T16 chain: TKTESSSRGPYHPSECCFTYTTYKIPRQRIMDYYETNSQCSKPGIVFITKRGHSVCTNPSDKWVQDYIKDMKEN

CCL3 = target: T17, CCL3 (human, UniProt P10147 24-92)
T17 chain: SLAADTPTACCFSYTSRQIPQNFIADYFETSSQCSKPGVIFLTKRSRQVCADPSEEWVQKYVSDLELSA

CCL15 = target: T18, CCL15 (Homo sapiens)
T18 chain: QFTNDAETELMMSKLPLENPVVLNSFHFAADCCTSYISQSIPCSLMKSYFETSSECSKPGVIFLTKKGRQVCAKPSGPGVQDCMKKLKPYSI

CCL11 = CCL11 (Homo sapiens)
Chain of CCL11 (Homo sapiens) (chain, as listed by the source): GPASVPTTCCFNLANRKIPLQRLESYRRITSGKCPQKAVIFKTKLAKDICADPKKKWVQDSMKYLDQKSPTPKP

Chain of CCL7 (P80098 24-99): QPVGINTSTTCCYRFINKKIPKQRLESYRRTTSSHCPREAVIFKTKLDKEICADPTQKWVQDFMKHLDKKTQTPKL

B1: P1243 (evasin from Amblyomma americanum), purified, C-terminal StrepII:8xHis tag (natural protein)
chain: ETGRNHTEDNSTEYYDYEEARCACPARHLNNTNGTVLKLLGCHYFCNGTLCTAPDGYPCYNLTAQQVRTLTTYPNTSCAVGVCMKGTCVKNGTMEQCFKTP
Work on B1 yielded a Kd (CCL4L1) of 15.7 nM, a Kd (CCL7) of 49.3 nM and a Kd (CCL21) of 26 nM. For the same binder, the Kd (CCL1) was 20 nM, the Kd (CCL23) was 0.772 nM and the Kd (CCL8) was 56.3 nM. For the same binder, the Kd (CCL4) was 12.2 nM, the Kd (CCL16) was 1.3 nM and the Kd (CCL19) was 3.9 nM. The Kd (CCL18) was 0.663 nM, the Kd (CCL5) was 3.79 nM and the Kd (CCL17) was 6.1 nM. It also gave a Kd (CCL22) of 13 nM, a Kd (CCL13) of 1.4 nM and a Kd (CCL27) of 24 nM. The Kd (CCL24) was 13 nM, the Kd (CCL3L1) was 8.97 nM and the Kd (CCL14) was 4.33 nM. It also gave a Kd (CCL3) of 35.5 nM, a Kd (CCL15) of 9.78 nM and a Kd (CCL11) of 6.69 nM.

From paper PMC5910400 (2018)
